Reference: paper PMC5812274 (Science signaling, 2017)

Molecular target: large-conductance Ca2+-activated potassium (BK) channel pore-forming α subunit (rat (endogenous in cerebral artery …, UniProt Q62976 1-1209))
Experiment: FRET or BRET

large-conductance Ca2+-activated potassium (BK) channel pore-forming α subunit (rat, sequence (Q62976 whole entry): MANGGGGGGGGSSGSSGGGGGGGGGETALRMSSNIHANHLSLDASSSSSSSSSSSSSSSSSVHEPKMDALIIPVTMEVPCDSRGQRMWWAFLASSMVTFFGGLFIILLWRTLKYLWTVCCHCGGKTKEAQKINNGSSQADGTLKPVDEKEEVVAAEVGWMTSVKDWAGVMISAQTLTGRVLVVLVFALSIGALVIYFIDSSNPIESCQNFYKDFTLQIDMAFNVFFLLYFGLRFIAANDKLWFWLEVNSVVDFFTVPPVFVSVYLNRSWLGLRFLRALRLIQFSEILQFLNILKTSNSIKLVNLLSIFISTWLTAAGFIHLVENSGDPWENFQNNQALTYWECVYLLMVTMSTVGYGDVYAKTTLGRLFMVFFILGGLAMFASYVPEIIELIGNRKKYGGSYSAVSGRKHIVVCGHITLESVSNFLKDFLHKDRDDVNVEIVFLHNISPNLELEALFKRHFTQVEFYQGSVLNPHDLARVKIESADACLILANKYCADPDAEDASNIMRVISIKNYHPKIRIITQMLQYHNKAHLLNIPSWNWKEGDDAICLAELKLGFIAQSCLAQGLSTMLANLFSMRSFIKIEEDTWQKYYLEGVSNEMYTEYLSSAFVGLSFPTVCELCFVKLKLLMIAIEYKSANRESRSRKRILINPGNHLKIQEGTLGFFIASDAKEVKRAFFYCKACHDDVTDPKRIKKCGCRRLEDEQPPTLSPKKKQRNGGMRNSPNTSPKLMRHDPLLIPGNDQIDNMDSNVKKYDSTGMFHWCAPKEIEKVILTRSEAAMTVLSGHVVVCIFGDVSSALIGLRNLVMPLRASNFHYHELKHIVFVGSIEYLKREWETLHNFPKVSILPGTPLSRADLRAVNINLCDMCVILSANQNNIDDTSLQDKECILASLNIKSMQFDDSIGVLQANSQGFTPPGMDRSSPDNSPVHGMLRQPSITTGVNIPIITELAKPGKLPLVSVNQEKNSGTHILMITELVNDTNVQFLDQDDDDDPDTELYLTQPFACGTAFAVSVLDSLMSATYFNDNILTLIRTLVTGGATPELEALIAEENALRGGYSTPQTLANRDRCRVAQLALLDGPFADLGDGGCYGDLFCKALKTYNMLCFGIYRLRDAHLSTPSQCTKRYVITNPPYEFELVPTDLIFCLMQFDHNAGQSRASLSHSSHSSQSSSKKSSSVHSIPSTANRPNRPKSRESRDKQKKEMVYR

fold increase of normalized FRET, 60 mM K+ against 6 mM K+: ~3.4 fold
B1: BK channel auxiliary β1 subunit (natural protein, UniProt P97678 1-191, looked up)
chain: MGKKLVMAQKRGETRALCLGVAMVVCAAITYYILGTTVLPLYQKSVWTQESTCHLVETNIKDQEELEGRKVPQYPCLWVNVSAVGRWAMLYHTEDTRDQNQQCSYIPRNLDNYQTALVDVKKVRANFYKHHNFYCFSAPQVNETSVVYQRLYGPQILLFSFFWPTFLLTGGLLIIAMVKLNRSLSVLAAQK
